Measurements as given in patent US20090311686A1 (GIVAUDAN, published 2009).
No end group written: not given here.

Tests used:
Experiment in all cases: cell-based or functional assay
[1] = molecular target: T1, CSR:T1R2/CSR:T1R3 chimeric heterodimer (human)
T1 chain 1: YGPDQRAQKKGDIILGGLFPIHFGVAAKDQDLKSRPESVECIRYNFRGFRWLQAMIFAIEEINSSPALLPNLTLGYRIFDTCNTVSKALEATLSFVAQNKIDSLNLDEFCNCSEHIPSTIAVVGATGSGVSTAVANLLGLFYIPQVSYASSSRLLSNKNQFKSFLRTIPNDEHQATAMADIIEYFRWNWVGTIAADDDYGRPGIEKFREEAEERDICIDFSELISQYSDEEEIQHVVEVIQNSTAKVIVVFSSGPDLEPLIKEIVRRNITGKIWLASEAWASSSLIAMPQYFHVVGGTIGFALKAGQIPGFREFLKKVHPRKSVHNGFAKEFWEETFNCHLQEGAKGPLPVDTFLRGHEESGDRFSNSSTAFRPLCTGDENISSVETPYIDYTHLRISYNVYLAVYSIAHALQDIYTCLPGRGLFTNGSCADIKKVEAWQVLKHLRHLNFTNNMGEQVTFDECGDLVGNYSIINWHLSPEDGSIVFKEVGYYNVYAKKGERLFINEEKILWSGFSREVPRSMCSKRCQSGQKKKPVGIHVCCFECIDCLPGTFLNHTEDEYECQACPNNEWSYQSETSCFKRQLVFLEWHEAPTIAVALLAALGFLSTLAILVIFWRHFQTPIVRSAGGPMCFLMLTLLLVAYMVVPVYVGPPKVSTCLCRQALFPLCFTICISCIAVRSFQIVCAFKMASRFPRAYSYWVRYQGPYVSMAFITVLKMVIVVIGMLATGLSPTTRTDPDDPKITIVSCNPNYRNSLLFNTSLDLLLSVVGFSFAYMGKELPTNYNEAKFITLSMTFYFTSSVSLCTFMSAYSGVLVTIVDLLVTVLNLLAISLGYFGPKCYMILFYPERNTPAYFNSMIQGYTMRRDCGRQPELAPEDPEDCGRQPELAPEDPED
T1 chain 2: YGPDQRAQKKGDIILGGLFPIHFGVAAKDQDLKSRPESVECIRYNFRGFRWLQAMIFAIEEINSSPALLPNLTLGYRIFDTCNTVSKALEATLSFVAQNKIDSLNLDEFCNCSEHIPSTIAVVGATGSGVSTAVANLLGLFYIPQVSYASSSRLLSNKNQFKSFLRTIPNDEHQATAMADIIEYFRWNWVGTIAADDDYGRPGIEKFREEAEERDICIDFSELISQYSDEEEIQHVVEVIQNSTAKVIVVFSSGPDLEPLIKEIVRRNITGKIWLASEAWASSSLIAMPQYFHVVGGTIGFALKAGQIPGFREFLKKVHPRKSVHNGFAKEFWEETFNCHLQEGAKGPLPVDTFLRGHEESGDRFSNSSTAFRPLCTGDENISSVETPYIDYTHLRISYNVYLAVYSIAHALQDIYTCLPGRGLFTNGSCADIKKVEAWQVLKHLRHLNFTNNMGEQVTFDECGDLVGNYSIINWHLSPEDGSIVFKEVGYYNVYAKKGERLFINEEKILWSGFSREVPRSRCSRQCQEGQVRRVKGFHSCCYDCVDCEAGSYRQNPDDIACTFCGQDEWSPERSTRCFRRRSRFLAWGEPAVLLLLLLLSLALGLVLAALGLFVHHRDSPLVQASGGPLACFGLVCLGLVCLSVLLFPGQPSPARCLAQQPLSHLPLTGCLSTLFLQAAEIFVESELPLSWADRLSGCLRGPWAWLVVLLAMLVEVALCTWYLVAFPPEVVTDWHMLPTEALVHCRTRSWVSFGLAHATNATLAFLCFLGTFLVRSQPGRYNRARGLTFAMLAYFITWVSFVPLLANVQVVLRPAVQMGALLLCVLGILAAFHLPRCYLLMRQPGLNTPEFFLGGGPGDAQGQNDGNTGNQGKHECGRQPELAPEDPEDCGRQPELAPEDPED

[2] = molecular target: T2, human calcium-sensing receptor (hCaSR), full length (human, UniProt Q8TE23 20-839)
T2 sequence: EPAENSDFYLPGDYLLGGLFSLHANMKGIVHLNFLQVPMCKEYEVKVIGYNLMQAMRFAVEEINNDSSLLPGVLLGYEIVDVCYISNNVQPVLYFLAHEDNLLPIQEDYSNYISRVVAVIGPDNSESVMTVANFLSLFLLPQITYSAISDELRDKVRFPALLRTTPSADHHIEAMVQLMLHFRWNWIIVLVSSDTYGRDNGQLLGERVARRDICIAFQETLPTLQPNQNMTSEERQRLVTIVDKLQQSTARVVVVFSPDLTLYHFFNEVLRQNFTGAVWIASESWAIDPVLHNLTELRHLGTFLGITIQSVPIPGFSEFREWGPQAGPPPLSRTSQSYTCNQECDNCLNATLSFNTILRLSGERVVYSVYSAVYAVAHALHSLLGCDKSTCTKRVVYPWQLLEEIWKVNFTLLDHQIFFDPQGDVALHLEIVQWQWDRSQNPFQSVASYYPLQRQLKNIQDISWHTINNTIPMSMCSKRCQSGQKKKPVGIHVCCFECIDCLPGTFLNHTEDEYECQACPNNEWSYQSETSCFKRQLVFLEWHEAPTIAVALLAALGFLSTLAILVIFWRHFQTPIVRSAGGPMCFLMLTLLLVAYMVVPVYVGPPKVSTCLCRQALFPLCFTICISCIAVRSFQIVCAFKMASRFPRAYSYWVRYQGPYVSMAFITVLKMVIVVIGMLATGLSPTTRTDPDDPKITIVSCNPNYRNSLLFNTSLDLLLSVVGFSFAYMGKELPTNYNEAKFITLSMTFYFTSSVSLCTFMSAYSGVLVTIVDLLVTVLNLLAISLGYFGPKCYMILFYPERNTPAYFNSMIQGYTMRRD

[3] = molecular target: human T1R2/T1R3 sweet receptor heterodimer (wildtype) (human, UniProt Q8TE23 20-839; Q7RTX0 21-852)
human T1R2/T1R3 sweet receptor heterodimer (wildtype), sequence (Q7RTX0 21-852 C757R limits assumed, one chain of several): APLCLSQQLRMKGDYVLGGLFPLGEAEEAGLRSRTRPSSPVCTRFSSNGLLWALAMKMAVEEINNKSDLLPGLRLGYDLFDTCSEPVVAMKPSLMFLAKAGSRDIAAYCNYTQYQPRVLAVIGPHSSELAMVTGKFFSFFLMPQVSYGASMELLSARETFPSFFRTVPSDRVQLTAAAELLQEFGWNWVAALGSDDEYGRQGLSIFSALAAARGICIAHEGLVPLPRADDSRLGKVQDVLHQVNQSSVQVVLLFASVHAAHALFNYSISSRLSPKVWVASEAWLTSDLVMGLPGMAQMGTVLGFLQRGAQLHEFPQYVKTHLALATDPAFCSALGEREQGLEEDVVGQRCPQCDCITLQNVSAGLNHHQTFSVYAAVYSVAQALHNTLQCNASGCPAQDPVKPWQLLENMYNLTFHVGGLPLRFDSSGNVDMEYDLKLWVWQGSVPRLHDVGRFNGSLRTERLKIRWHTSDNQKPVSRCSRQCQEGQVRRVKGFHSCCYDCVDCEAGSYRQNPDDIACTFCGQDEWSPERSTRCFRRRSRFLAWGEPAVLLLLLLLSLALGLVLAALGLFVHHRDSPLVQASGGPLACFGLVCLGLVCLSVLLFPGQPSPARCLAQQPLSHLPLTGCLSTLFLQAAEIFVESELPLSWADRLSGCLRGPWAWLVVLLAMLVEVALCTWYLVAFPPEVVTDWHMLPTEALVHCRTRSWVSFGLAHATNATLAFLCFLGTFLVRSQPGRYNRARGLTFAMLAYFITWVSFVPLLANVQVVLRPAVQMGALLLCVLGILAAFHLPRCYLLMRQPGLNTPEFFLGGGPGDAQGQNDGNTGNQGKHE

B1: Aspartame (aspartyl-phenylalanine-1-methyl ester, a dipeptide) (peptide)
peptide: Asp-Phe-OMe
[1]
  net increase in fluorescence over baseline (Fluo-4 calcium assay, AVG of six replicates), aspartame 0.85 mM: 72 RFU
[2]
  net increase in fluorescence over baseline (Fluo-4 calcium assay, AVG of six replicates), aspartame 0.85 mM: 41 RFU
[3]
  net increase in fluorescence over baseline (Fluo-4 calcium assay, AVG of six replicates), aspartame 0.85 mM: 531 RFU
